Source: the DeepSol protein solubility set

Assay: soluble on expression in E. coli; label from the status in PepcDB or PDB records
In the case of “MIGCLPMMRSLERHAVILGLLRQQEHVTIEAMAAACDASLQTIRRDLNQLGEDGRVVRYHGGARLADHARSATYEVRSASHVREKVAAGQLLARFIPDGATLFIAGGSTLALAAQELRACEGLTIVTNNLHAAVTLYDKTGFDVCVLGGTMRPASGSMIGEEAVRMIERYSLDFAVIGTCGISPDGALLEYDQSLVPPLLAMISNARRTVLVADGSKFGAKGIVRAAPLSAVNHFVTDRAPEGRAADLLARTGVKVHHPANPNLSSQDAAADGRELEHHHHHH”, the “soluble on expression in E. coli” value is reported as “not soluble”. With “MAKNTLSFVCQNCGAAYNRWQGKCESCGEWNTLAEEDTSGSVPVSIRSKRKGRTFALESLAGKSPDAPRLSSGMTELDRVTGGGFVRGSVLLVGGDPGIGKSTLLTQATSLMARAGHRIVYISGEEAIAQVRLRAERLGLSDAPVQLAAETSVEDIVSTLSEGAVPRLIVIDSIQTMWTDTVESAPGTVTQVRASAQALIRFAKKTGAAIILVGHVTKDGQIAGPRVVEHMVDAVMSFEGEGSQQFRILRAVKNRFGPTDEIGVFEMTGLGLREVTNPSELFLSERDLGTPGTAVFAGIEGTRPVLVELQALVAPTSLGTPRRAVVGWDPSRLSMVLAVLEAHCGVKLSGHDVYLNVAGGLRIHEPAADLAAAAALVSSLVNAQLPTDAVYFGEISLSGVVRPVAQTPARLKEAAKLGFQRAVLPESARGEAGGDAGLSLNAVNSLTTLVAEIAARGSRRGESGGSAEKNATPARFRRGEGLEHHHHHH” the “soluble on expression in E. coli” value was “not soluble”. With “MARQSSSLKSFIYKDECYFYSKKCIKTLRLRLNEKGEFVLSIPYFCTFKSVYEFLDKSSSWMNEAKKRFEKKVLKDDELIFLAKKYKIIFDENTKKTYFDKDKIICQNKAKLDLFLRQNAKKIFTFYLKKWSQKTGLFYTHLSIKNMKTRWGSCNHNKAYVNLNLKLIQKSLRAIEYVILHEISHLKFPNHSKEFYTFIEHFMSDFRQREKEFLSLEHHHHHH” the “soluble on expression in E. coli” value was “soluble”. With “MGSDKIHHHHHHIPNLEKSGSNFCMPFKGINVVKKCNMEYFLLNADFVNLEKTVFKKSQTLDNVCTGPENTFKTPDAGNYVVRYGERVLMTYKAGSNYRKCIGTYDVDDDLFTCVMPTDNNGFEGLEMGGFLYDPVTGEPHRDDGSVEVFCKIPHKF” the “soluble on expression in E. coli” value was “not soluble”. With “DVAVRTLSDVPSAAPQNLSLEVRNSKSIMIHWQPPAPATQNGQITGYKIRYRKASRKSDVTETLVSGTQLSQLIEGLDRGTEYNFRVAALTINGTGPATDWLSAETFESDLDETRVPEV” the “soluble on expression in E. coli” value was “soluble”. For “MGSDKIHHHHHHMAGLERGELRQALLAEVKKVCAGQGPEAVSISKIGKSLGVSSGAPFRLFPSREHIFAALIESEMERLDATFERIWSCKTTDPVLRLTDICQAYVDHARTEPAMFRLAFSVSAKAMGAVKLQKIGEDVYEKVQRAVAACVPRHTTTDQVELKSYLLWSTIHGHVMLCMTGQMDDQSIDLPDEIVVASAVQGILKAG”, the “soluble on expression in E. coli” value was “not soluble”. In the case of “GGNSKSRNDRTETVDKEVIKAPEFDADSAYQYIQVQADFGPRVPNTQAHKECGEYLAGQLEKFGAKVYNQYADLIAYDGTILKSRNIIGAYKPESKKRILLCAHWDSRPYADNDPDPKNHHTPILGVNDGASGVGVLLEIARQIQKEQPALGIDIVFFDSEDYGIPEFYDGKYKQDTWCLGSQYWARTPHVQNYNARYGILLDMVGGKDATFYYEGYSARTARSEMKKIWKKAHELGYGKYFVKEDGGETVDDHIYVNKLARIPCVDIINYDAGNPQSSFGSFWHTVNDTMENIDRNTLKAVGQTVMDVIYNEK”, the “soluble on expression in E. coli” value is reported as “soluble”. With “EFGEPAPANAESSSVAALKIGKVGNFGDCTGTLVADQWVLTARHCLESVNNEGTQARIGGKVYDADSWALSPVSDAGLLHLTEKVTDATPAKVSRDIPTPGQTGTLYGWSSSSSLARSGQLPMAKMVVKELLGGGPSQGTPSEGAPGGATPGEVAPGGAAPSETVPSESQAESIPAGTESIPADGAMMPMIQSAILDAHSVSGAGMQGGDSGGPFFVDGKLAGLATAGTANGDPDLPSPSAAITTLAGTADWIDGVTSGRDTKSVLTAENTPAPPKTIQTSADH” the “soluble on expression in E. coli” value was “not soluble”. With “EHEHNYHPNAVAAGLRAGRTRSIGLVIPDLENTSYTRIANYLERQARQRGYQLLIACSEDQPDNEMRCIEHLLQRQVDAIIVSTSLPPEHPFYQRWANDPFPIVALDRALDREHFTSVVGADQDDAEMLAEELRKFPAETVLYLGALPELSVSFLREQGFRTAWKDDPREVHFLYANSYEREAAAQLFEKWLETHPMPQALFTTSFALLQGVMDVTLRRDGKLPSDLAIATFGDNELLDFLQCPVLAVAQRHRDVAERVLEIVLASLDEPRKPKPGLTRIKRNLYRRGVLSRS” the “soluble on expression in E. coli” value was “soluble”. With “MEEKFTPEEQAIYDEHFASDRPVELVEPEQVREAFNAEESSQQPSVEPLQEQPNSGVIEQERQARQKAEQKAMEARELAIEFAQKYAQMQEEAVRRRDENIPTLEDDPKAHVAWLSHKVQEQQKLLDEFSRIRESQERLNQEEYERQKLGDYFEEAKAQVQDKYPDLDSITDYLYERADSVLQAQADLYPQWKDPAARQQQIGAELRQICQQCQKAGINPIEVLVQKAKAFGYSGAPIKDEVETLQERSQAARTLTARGGQVPTGGMDMRTLFSMPDAEFAVWVEKNPEKFEQIMSRT” the “soluble on expression in E. coli” value was “not soluble”. With “MGSDKIHHHHHHGVDTKGPAGIDATELYASLDLSLLVGNSNVTTKSSELTGPTDGTEENMTKDERSVSDCYIAIFKYDSKTKNVGDFLTSYYSSNGSISESLIFKIPKDKSERTDLKIVVIANAAASVSKYGLASASQISYADLKGKTLVEVPNVFVKVGETEIAKGDGGTYPDNKGGVYVNISEKILGLDQPANTPVEVKLIQRTAAIMLQQFKILKSDGTEYDNVEIKGLSLLNSKTIGQVAGEVSSGEKLYGMQSVNGTTERLYSYENTSSSQPTTLKIDYVYNNGETGSCSFPIKSRLSEASDPKAEVWAGYLYKLTVKLTNAAVDVTVKCVTQDWVFNKDHELEFTF” the “soluble on expression in E. coli” value was “not soluble”. In the case of “MGSDKIHHHHHHMAKDIEISASESKFILEALRQNYRLDGRSFDQFRDVEITFGKEFGDVSVKMGNTKVHCRISCQIAQPYEDRPFEGLFVISTEISPMAGSQFENGNITGEDEVLCSRIIEKSVRRSGALDVEGLCIVAGSKCWAVRADVHFLDCDGGFIDASCIAVMAGLMHFKKPDITVHGEQIIVHPVNEREPVPLGILHIPICVTFSFFNPQDTEENIKGETNSEISIIDATLKEELLRDGVLTVTLNKNREVVQVSKAGGLPMDALTLMKCCHEAYSIIEKITDQILQLLKEDSEKRNKYAAMLTSENAREI”, the “soluble on expression in E. coli” value is reported as “not soluble”. For “MTTPAVKMVVAYVTAPSKEVAMTVARTTVTEALAACANVIPEVTSVYKWQGKIEEDQEHVVILKTVESKVEELSARVRSLHPAETPCFFTLAIDKITPDFGGWIVDSTNSSTAKH”, the “soluble on expression in E. coli” value was “soluble”. For “YVSTDGDDIYVGKNNKQNDYLTNKKAKKTHTWLHTKDIPGSHVVIFNDAPSDTTIKEAAMLAGYFSKAGNSGQIPVDYTLIKNVHK”, the “soluble on expression in E. coli” value was “not soluble”. With “MTPHATPAPRVSAIVSLYNAERFVRGCLDDLLGQTLADSLEIIVIDACSPQGEGAIVQDYMRDHPNIVYVRTDEREGVYASWNRGVRLARAPYVTNANADDRHREDALERLAAALDEAPEAGFAYGDCRVGQTENERYADNAGQRVMRFPDFFAPATLLYCQLGPQPLWRRSVHDVVGFFDESYRACADWDFDIRLAAAFRGIHVPDALGLYLEHEAAITFRDDTMTRENDRVQRQWQHPEAVEERYRAAGVPCHTAEERALVHFDMALRALRFYPPWCYGAPAHNPGFARRCLRHALRLAPALAPAKELLALPDAVLTALDDLPSPLGLPSQATLAGVAAPLEHHHHHH” the “soluble on expression in E. coli” value was “not soluble”.
